Source: US20260102474A1 (published 2026)

Tests used:
Assay in all cases: competition
[1] = target: SARS-COV-2 full-length trimeric spike protein, Gamma (P.1) (SARS-COV-2)
[2] = target: SARS-COV-2 full-length trimeric spike protein, Delta (B.1.617.2) (SARS-COV-2)
[3] = target: SARS-COV-2 full-length trimeric spike protein, Beta (B1.351) (SARS-COV-2)
[4] = target: Trimeric S-protein corresponding to Omicron (B.1.1.529) (SARS-COV-2)
[5] = target: SARS-COV-2 full-length trimeric spike protein, Alpha (B.1.1.7) (SARS-COV-2)

| Binder | IC50 [1] [nM] | IC50 [2] [nM] | IC50 [3] [nM] | IC50 [4] [nM] | IC50 [5] [nM] |
| --- | --- | --- | --- | --- | --- |
| ACE2-M2-FcKO (Fc fusion) STIEEQAKYFLDYFNVQAEDLFYQSSLASWNYNTNITEENVQNMNNAGDKWSAFLKEQSTYAQRYPLQEIQNLTVKLQLQALQQNGSSVLSEDKSKRLNTILNTMSTIYSTGKVCNPDNPQECLLLEPGLNEIMANSLDYNERLWAWESWRSEVGKQLRPLYEEYVVLKNEMARANHYEDYGDYWRGDYEVNGVDGYDYSRGQLIEDVEHTFEEIKPLYEHLHAYVRAKLMNAYPSYISPIGCLPAHLLGDMWGRFWTNLYSLTVPFGQKPNIDVTDAMVDQAWDAQRIFKEAEKFFVSVGLPNMTQGFWEYSMLTDPGNVQKAVCHPTAWDLGKGDFRILMCTKVTMDDFLTAHREMGRIQYDMAYAAQPFLLRNGANEGFHEAVGEIMSLSAATPKHLKSIGLLSPDFQEDNETEINFLLKQALTIVGTLPFTYMLEKWRWMVFKGEIPKDQWMKKWWEMKREIVGVVEPVPHDETYCDPASLFHVSNDYSFIRYYTRTLYQFQFQEALCQAAKHEGPLHKCDISNSTEAGQKLFNMLRLGKSEPWTLALENVVGAKNMNVRPLLNYFEPLFTWLKDQNKNSFVGWSTDWSPYADQSIKVRISLKSALGDKAYEWNDNEMYLFRSSVAYAMRQYFLKVKNQMILFGEEDVRVANLKPRISFNFFVTAPKNVSDIIPRTEVEKAIRMSRSRINDAFRLNDNSLEFLGIQPTLGPPNQPPVSSGGGGSGGGGSGGGGSEPKSSDKTHTCPPCPAPPVAGPSVFLFPPKPKDTLMISRTPEVTCVVVGVSHEDPEVKFNWYVDGVEVHNAKTKPREEQYNSTYRVVSVLTVLHQDWLNGKEYKCKVSNKQLPSPIEKTISKAKGQPGQPREPQVYTLPPSRDELTKNQVSLTCLVKGFYPSDIAVEWESNGQPENNYKTTPPVLDSDGSFFLYSKLTVDKSRWQQGNVFSCSVMHEALHNHYTQKSLSLSPGK | 3.6 | 3.3 | 3.9 | 0.7 | 4.3 |
| ACE2-M1-FcKO (Fc fusion) STIEEQAKYFLDKFNHEAEDLFYQSSLASWNYNTNITEENVQNMNNAGDKWSAFLKEQSTYAQMYPLQEIQNLTVKLQLQALQQNGSSVLSEDKSKRLNTILNTMSTIYSTGKVCNPDNPQECLLLEPGLNEIMANSLDYNERLWAWESWRSEVGKQLRPLYEEYVVLKNEMARANHYEDYGDYWRGDYEVNGVDGYDYSRGQLIEDVEHTFEEIKPLYEHLHAYVRAKLMNAYPSYISPIGCLPAHLLGDMWGRFWTNLYSLTVPFGQKPNIDVTDAMVDQAWDAQRIFKEAEKFFVSVGLPNMTQGFWEYSMLTDPGNVQKAVCHPTAWDLGKGDFRILMCTKVTMDDFLTAHREMGRIQYDMAYAAQPFLLRNGANEGFHEAVGEIMSLSAATPKHLKSIGLLSPDFQEDNETEINFLLKQALTIVGTLPFTYMLEKWRWMVFKGEIPKDQWMKKWWEMKREIVGVVEPVPHDETYCDPASLFHVSNDYSFIRYYTRTLYQFQFQEALCQAAKHEGPLHKCDISNSTEAGQKLFNMLRLGKSEPWTLALENVVGAKNMNVRPLLNYFEPLFTWLKDQNKNSFVGWSTDWSPYADQSIKVRISLKSALGDKAYEWNDNEMYLFRSSVAYAMRQYFLKVKNQMILFGEEDVRVANLKPRISFNFFVTAPKNVSDIIPRTEVEKAIRMSRSRINDAFRLNDNSLEFLGIQPTLGPPNQPPVSSGGGGSGGGGSGGGGSEPKSSDKTHTCPPCPAPPVAGPSVFLFPPKPKDTLMISRTPEVTCVVVGVSHEDPEVKFNWYVDGVEVHNAKTKPREEQYNSTYRVVSVLTVLHQDWLNGKEYKCKVSNKQLPSPIEKTISKAKGQPGQPREPQVYTLPPSRDELTKNQVSLTCLVKGFYPSDIAVEWESNGQPENNYKTTPPVLDSDGSFFLYSKLTVDKSRWQQGNVFSCSVMHEALHNHYTQKSLSLSPGK | 3.8 | 1.8 | 3.9 | 0.5 | 6.9 |
